Measurements from article PMC4298015.

Columns and labels:
GST-Gli1ZF-WT = GST-Gli1ZF-WT (UniProt P08151 242-424); assay: EMSA
GST-Gli1ZF-K350A = GST-Gli1ZF-K350A (UniProt P08151 242-424, K350A); assay: EMSA
GST-Gli1ZF-K350A, sequence (P08151 242-424 K350A): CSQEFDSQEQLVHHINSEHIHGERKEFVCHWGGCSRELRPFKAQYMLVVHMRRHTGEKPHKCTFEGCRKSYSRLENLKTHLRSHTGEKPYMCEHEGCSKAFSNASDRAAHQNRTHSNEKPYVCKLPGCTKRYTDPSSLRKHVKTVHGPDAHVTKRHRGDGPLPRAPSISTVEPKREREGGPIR

GST-Gli1ZF-WT, sequence (P08151 242-424): as the sequence (P08151 242-424 K350A) above, with A109K counted along it

B1: GliBS (dsDNA)
DNA 1: TTGCCTACCTGGGTGGTCTCTCCACTT
DNA 2: AAGTGGAGAGACCACCCAGGTAGGCAA
B1: binds (GST-Gli1ZF-WT); no binding (GST-Gli1ZF-K350A).
